Measured values taken from PMC3614988.

What was measured:
[1] = target: Rai14 (retinoic acid induced protein 14) (rat (endogenous in testis)) (UniProt Q5U312); test: co-IP; testis lysates (800 µg protein) of rats 12 hr after a single dose of adjudin (50 mg/kg b.w., by gavage); anti-Rai14 IgG as precipitating antibody, blot with anti-actin antibody; compared with 0 hr
[2] = target: Rai14 (retinoic acid induced protein 14) (rat (endogenous in testis)) (UniProt Q5U312); test: co-IP; testis lysates (800 µg protein) of rats 48 hr after a single dose of adjudin (50 mg/kg b.w., by gavage); anti-Rai14 IgG as precipitating antibody, blot with anti-actin antibody; compared with 0 hr

Sequence of UniProt Q5U312 (Q5U312 whole entry): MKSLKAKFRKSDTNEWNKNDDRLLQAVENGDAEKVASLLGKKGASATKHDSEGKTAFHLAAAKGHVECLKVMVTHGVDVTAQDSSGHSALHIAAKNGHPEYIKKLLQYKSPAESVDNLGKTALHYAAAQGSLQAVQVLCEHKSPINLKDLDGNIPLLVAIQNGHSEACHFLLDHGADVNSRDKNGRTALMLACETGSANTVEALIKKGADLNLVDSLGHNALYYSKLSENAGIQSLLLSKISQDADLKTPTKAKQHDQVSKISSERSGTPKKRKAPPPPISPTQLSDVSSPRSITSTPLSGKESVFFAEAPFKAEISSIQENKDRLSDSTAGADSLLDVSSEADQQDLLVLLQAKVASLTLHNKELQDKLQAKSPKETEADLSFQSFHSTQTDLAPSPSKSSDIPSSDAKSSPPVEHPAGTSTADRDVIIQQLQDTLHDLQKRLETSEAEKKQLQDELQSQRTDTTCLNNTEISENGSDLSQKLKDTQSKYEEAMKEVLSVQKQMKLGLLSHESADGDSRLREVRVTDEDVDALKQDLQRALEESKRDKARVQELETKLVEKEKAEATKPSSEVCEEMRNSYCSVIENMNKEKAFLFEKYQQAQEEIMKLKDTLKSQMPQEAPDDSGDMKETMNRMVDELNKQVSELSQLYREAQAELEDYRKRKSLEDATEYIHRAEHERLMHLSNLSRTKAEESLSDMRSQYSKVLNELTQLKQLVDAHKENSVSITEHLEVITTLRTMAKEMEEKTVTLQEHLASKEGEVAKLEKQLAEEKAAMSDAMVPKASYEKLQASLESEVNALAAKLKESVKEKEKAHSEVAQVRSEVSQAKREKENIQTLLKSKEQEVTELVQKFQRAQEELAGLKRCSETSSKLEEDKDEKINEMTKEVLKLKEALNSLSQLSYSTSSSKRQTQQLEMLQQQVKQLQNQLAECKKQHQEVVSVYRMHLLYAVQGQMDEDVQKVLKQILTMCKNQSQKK

percent reduction of the Rai14-actin co-IP against 0 hr [1]: 35%
percent loss of the Rai14-actin co-IP against 0 hr [2]: 90%
Substance: actin (from UniProt P60711 1-375) (natural protein)
